The values that follow come from the DeepSol protein solubility set.

A short description of this series: soluble on expression in E. coli; label from the status in PepcDB or PDB records.
For “MWGWKAVGIKIDPSVSLEQAREIIKEAGFQEYVVNPEYIIFKQTGTQLTIKGEELPIEVVIGSAESGIFLQARYDTFVLFDSGDLAKLADELVFKLSV”, the “soluble on expression in E. coli” value is “not soluble”.

With “MWLLQLMQQQHSIDMMKKQGLKLEAQDLYNPNGVSLKDAVGIFGGGCTGEIISPEGLILTNHHCGYSSIQQHSSVEHDYLTDGFWATSRDQELPTPGLKFTFIERIEDITDIVNAKIAAKEITESQSFTGAFLEGLAKELYEKSDLKDKKGIVPQALPFYAGNKFYLFYKKIYPDVRMVAAPPSSVGKFGGETDNWMWPRHTGDFSMFRIYADANGEPAEYSASNTPLKTKKHLSISIKGLKEGDYAMIMGFPGRTSRYLTVSEVKERMESTNEPRIRIRGARLAVLKEVMNASDKIRIQYANKYAGSSNYWKNSIGMNKAIIDNDVLGTKAEQEAKFAEYAKAQNNTEYANVVKKIDDLVAQTAPLNYQLTCLTEVFFGAIEFGNSMLTKTREALVDKNDSLIKVRLEGLKENFKSIHNKDYDHEVDRKVAKALLPLYAEMIPANQRPAIYKVIEQKYKGDYNKFVDDMYDKSIFANQANFDKFLKKPTVKAIDEDLALQYAQSKYDQYGNLLDQLKELDKELALLHKTYIRGLGEMKLPVPSYPDANFTIRLTYGNVKPYDPKDGVHYNYYTTTKGILEKENPEDREFVVPAKLKELIEKKDYGRYALPNGDMPVCFLSTNDITGGNSGSPVLNENGELIGCAFDGNWESLSGDINFDNNLQRCINLDIRYVLFILEKLGNCGHLINEMTIVE”, the “soluble on expression in E. coli” value is given as “not soluble”.

On to “MWLYYLQVVMDMRVYVEGYGCVLNTADTEIIKNSLKKHGFEVVNNLEEADIAIINTCVVRLETENRMIYRINELKNLGKEVVVAGCLPKALKNKVKGFLHIYPREAHKAGEILKNYVEKHYRMPYIEEDINKTLYKKLDYLKPSLITPLPICEGCIGNCSYCIVKIARGGLISYPREKIVNKAKELINKGAKCLLITAQDTACYGFDIGDNLANLLNELTQIKGEFIMRVGMMHAKNAELILDELIEVYQNEKVGKFLHLPLQSGDDEILKRMKRGYTVDEFKDIVNEFRRKIKNLCFTTDIIVGFPGETEEQFQNTLEVLRELKPDYIHGAKYSQRKGTEAAKMKQIDTKIRKRRSEILDKLRRELSYLNNKKYIGKAMKVLVLDEGKGYTDNFKVVKFEGGEVGEFRKVKITDAKTFGLKGELILLEHHHHHH”, for which the “soluble on expression in E. coli” value was “soluble”. With “MWQKSALTTVSISLPQQAVYSGMRYEVNISAAKCDGTGVTFGTINNCTITLSLPAGASIITRHFSADL” the entry was “not soluble”. Next, “MWSFRAWRRRRLLARHPVAEELWQRVRRHLPILDGLDADEDRRLRERAVLFLADKHLTALAGVDLDDFGRLLLAAQAQLPLLHLPELNWYQGFHELVLYPDDFVSPQKHRDASGVVHEFDDERSGETSLQGPVVLAWPGVVGGGGWDAYNLVIHELAHKLDMLNGDANGLPPLHAGMRIGDWASAMQAAYDEMNALLDRDPDAQTAIDPYAAEDPAEFFAVTSEYFFTAPDLLHEAYPAVYRQLQLFYRQDPLQRLRRLQAEHPDYREAAGDTTNG”: “not soluble”. Next, “MWSVTDSPLDDAIQEAKSAAQKAGFDTETFAAVQSKEGRTSFAFELEGLGSASSVSELEEAIEQIEGVDAKIVYPSAMAWISASRTLDPTLIVDAFQQHGVTATLTDSSLRRRLAWTDVEEGRYRRARARRFGSRVDEESRRFEIARREGFLHKRDETTRVVETTEVLFTARSLMTKAR”: “not soluble”; “MYCQRLRQLRKAHKLTMEQLAEKIGIAKSSYGGYEAESKKPPLDKLVILARLYDVSVDYILGLTDDPDPKVERKNLKEFLEKPDIHWDGYKLTPEILDPIRKILKLVTANNN”: “not soluble”; “MYDTIVIGAGQAGISIGYYLKQSDQKFIILDKSHEVGESWKDRYDSLVLFTSRMYSSLPGMHLEGEKHGFPSKNEIVAYLKKYVKKFEIPIQLRTEVISVLKIKNYFLIKTNREEYQTKNLVIATGPFHTPNIPSISKDLSDNINQLHSSQYKNSKQLAYGNVLVVGGGNSGAQIAVELSKERVTYLACSNKLVYFPLMIGKRSIFWWFDKLGVLHASHTSIVGKFIQKKGDPVFGHELKHAIKQKEIILKKRVIAAKQNEIIFKDSSTLEVNNIIWATGFRNPLCWINIKGVLDQEGRIIHHRGVSPVEGLYFIGLPWQHKRGSALLQGVGNDAEYIVKQMNGELEHHHHHH”: “soluble”. “MYEAGTVEWRLTMVYLEQFRFPDAEVEFDFFLRQKRTCYDTYYPFQILSKHRFEQIDFEPVTILYGGNGTGKSTVLNIIAQKLHLLREAPFNQSSFYEDYLELCSFESAAHLPKDSRIITSDDVFDYMLNIRNLNEGIDRKREMLFEEYLDTKFAKFRMKSLDDYEQLKRVNNARRKTQSQFIRSELMDNVREYSNGESAFLYFTEKVTENALFLLDEPENSLSPAKQQELVKFIEDSARFFGCQFVIATHSPFVLAIRGAKIYDLDEEPVDVKRWTELENVRAYYDFFKKHASEF”: the “soluble on expression in E. coli” value is on record as “not soluble”.

Consider “MYHVFFNRRPTRPRLPRALYEQLAALPLNTEVNVHTTNETHYNALFLGFEPRTNNVSLLVDRFYKDGGRSLAIDATTITAIDLPVSMRPASSADSDDEEE”, for which the “soluble on expression in E. coli” value is given as “not soluble”. For “MYIIAHRGASGYAPENTIAAFDLAVKMNADMIELDVQLTKDRQIVVIHDDRVDRTTNGSGFVKDFTLEELQKLDAGSWYGPAFQGERIPTLEAVLKRYHKKIGLLIELKGHPSQVGIEEEVGQLLGQFSFSINNIVQSFQFRSVQRFRELYPSIPTAVITRPNFGMLSRNQMKAFRSFANYVNIKHTRLNRLMIGSINKNGLNIFAWTVNNQKTAAKLQAMGVDGIVTDYPDFIIKDGKHENILEHHHHHH”, the “soluble on expression in E. coli” value is given as “not soluble”. Next, “MYIPKHFESMELSRYKLSKKPPLGTLFSSKASRQGFFGWRTSSNKDDPDFGMCASHIPFVFVEFDNGEHKLIAHLARKNKHVEMLERVQKCLVVFQSVDSYISPAWFPMKKKTHKFVPTWDFAAVHVYGTPRIIRDDKDWLINMLSTLTDQEEEKRPEGENVRSKVERF”: “soluble”; “MYKINDFEIMAPVGSRESLAAAIQAGADSIYFGIENLNMRARSANTFTIEDLREIARTCDEHGMKSYLTVNTIIYDKDIELMRTIVDAAKEAGISAVIAADVAVMSYANKIGQEVHLSTQLNISNAEALKFYAQFADVVVLARELNLEQVAEIYRQIQEEHICGPSGELIRIEMFCHGALCMAVSGKCYLSLHEMNHSANRGACMQICRRAYTVRDKDTDVELEVDNQYIMSPKDLKTIHFMNKMIDAGVRVFKIEGRARGPEYVRTVVECYKQAIRAYLDDSFTDEKIAAWDERLKTVFNRGFWDGYYLGQRLGEWTKNYGSAATERKIYVGKGIKYFSNIGVAEFLVEAAEVSVGDKLLITGPTTGAVFATLDEARVDLKPVETVKKGEHFSMKLDKIRPSDKLYKLVSTEELKKFKGL”: “not soluble”; “MYLRPDEVARVLEKAGFTVDVVTNKTYGYRRGENYVYVNREARMGRTALIIHPRLKDRSSSLADPASDIKTCDHYQNFPLYLGGETHEHYGIPHGFSSRIALERYLNGLFGDEKTD”: “not soluble”. Next, “MYLVCGEALFDVFSLESAARSNELGFTAIAGGSPFNVAVGLRRLGVEAALFGGLSSDYLGARLRRVLEEEGVDCGFLVPSDAPTTLAMVGLDASGSAQYQFRGEGCADRQVRLEHLPTLDGRIRGLHVGSYTLVVTPVADTLLALVRRESGRRLVSLDPNVRLDPQPDIDLWRRRVEAFASHAHLIKASEEDLALLYPGRDPGEVARGWLNPRCRLVFVTHGGAGASVHCTHGSWSRPADTALPLRDTVGAGDTFQAATLAYLRRLDADSPAGLAALSREAIDAMLAFAIRAAAVTCSRVGPDLPFAHEL”: “not soluble”; “MYLVTGATGQLGLRVVRRCITLGLPVRAFVRLTSQYELLKEWGAEIFIGDLQQPRDIQAAMKGVEAVICCHGSQLLSRAIQAIDYRATLDVIQAAQEQGVRYLTLISPLAVTGDRQQSPFLKAKYEVEQVLISSGLNYSIFRCPTLMSSLLPLAERFQQTGVYIVLGDPQHRLQLLSPDDLARCILIASQASQPAIFSMAHPEVFTRQEIADRLGRFFNRRPFVMTVPLSVIDGARQFLGVMSRDLDASLGTLRTLLAYESLCPASEIERAQTYFQLSFESLETFLGRYFLEHHHHHH”: “not soluble”; “MYQSIHVNKGQGGWGTGLDLTPSEPRTKVVSITGGGIHPVALKIAELSGAEAVDGFKNSIPEEEMMCVVIDCGGTARIGVYPMKRIPTVDILPSSPSGPLAKHITEDIFVSGVKPEDIMVTSSEADPGKPFDREKFKEDYAKIKEDQQEASDLKEGYLVKFSRGIGKAMGVFYQAGRDSVDMLIKN”: “not soluble”. Next, “MYRFCVALTPSTSEDEQVVRKSEKPASKPPTPEVEDCTFSEKNNDQRKIEKETESEESSNLKFPPARPSIRNATNFRRIICISESDSGKEEPVVKKEVLKTNKLRISETKPEYPPELLQLEARLQELRAGRKNKQGRINRKFVAKPCGVVSGETPQRPFLEEMYYFNPQETGTASEIFDMLFPAKDTPNFRPWLDGHFSAPDLQFKQIEKQRQTKLHSYTGTTLQEKKRKKRKKILKSIQEILWLLHFQKHDDFLESTSRLTIKNFSCHFDEHQRLKLLRNNDLSLICNYQIGSENTPIFNQRSTDCMLRPVFIDGLSFMDMLIPISSSLPIISTRSLLEILLNFILDGCQTVIYLPDYYNDTTNQKVDDSTIFQFLCNSKLIQFVDGRSRRAVERQVLLEAEKVHGVFVSSAEEFLTRNAIQCFPVINRYSKRLDEFLICTVFLVNNLPKKILAQDFVEESRVLKPEGSSSAVSSTTVLEESHQKISGAMEDSEDEPADPQTLKQEYLIKEECSEISEDSEEGAIVDVASSSGDLSENRDQKSENEEFEYSPHQLTLEQQTYLISSMAQLSIFHFQRYRQIRVFLMIIKRYVPELLPSFMQKTRMDDVAMAIQDIQNGKDLLYWPIFSKIDN”: “not soluble”; “MYRIGELAKMAEVTPDTIRYYEKQQMMEHEVRTEGGFRLYTESDLQRLKFIRHARQLGFSLESIRELLSIRIDPEHHTCQESKGIVQERLQEVEARIAELQSMQRSLQRLNDACCGTAHSSVYCSILEALEQGASGVKSGC”: “not soluble”. Turning to “MYSMLKRVITEKDLLRQIRLLEQLLNVPQLTAKRLAAQIQTTERTVFSDLQYIRSQLPADWSIETDSSGIRLRNQGNAQTNELWSLFLPQSISIQLLKELLFTKELVTTSFLSTSGVSYETLKRHIKKMNQALRDFHLTIQLTTMTIQLIGAESNIRIFYHRLLVPFTHNNYFFDDYSIHEEHYFQFLKQVYSSELTVETEEIFGACWFFINTIRNKANCRVSQFSFDSKDVLFQLYQPSLAKLYASEGIYLQGEESFFAFFCFLESWNYDNVYGETLASALHTHYSQLRKSLQQFVTNLSTEEARPDLIQTNLLDNLLLLFIKYTESPTLSEQFQLEYQELMTEQAAEDLALSKSNQELLEILSRYTTIEEPTYFLSLASLLEKQAIYSIQAQTMTAYFLFQGEPAWKAFLQQELAAYLGTRVKLQAIEYVELSQLTLNEADIIISNFPLDHLDLPVFYLSLIPTKNELRRLAELTLHSYF”, the “soluble on expression in E. coli” value is “soluble”. With “MYTAEQKARIKWACRRGMLELDVVIMPFFEECFDSLTESEQDDFVALLESDDPDLFAWVMGHGRCENLGLAAMVDKIVAHNLSKVRLEHHHHHH” the entry was “soluble”.
